Measured values: article PMC3909490

Target: FITC-casein (UniProt P02662)
Assay: fluorescence polarisation

Sequence of UniProt P02662 (P02662 16-214): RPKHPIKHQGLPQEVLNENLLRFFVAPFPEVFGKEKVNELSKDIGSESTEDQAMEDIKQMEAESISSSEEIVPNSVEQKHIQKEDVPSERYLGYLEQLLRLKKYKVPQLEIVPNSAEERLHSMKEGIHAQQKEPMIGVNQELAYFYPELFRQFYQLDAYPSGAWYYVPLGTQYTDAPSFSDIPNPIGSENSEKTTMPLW

Kd	Substance
0.08 µM	Hsp104^A503V (from UniProt P31539 1-908) (natural protein)
0.065 µM	Hsp104^WT (from UniProt P31539 1-908) (natural protein)
